{"source": "paper PMC11134355", "about": "(JACS Au, 2024)", "binders": {"B1": {"name": "TgCyp18 (enzyme)", "chain": "not shown"}}, "assay_in_all_cases": "fluorescence polarisation", "details_in_all_cases": "both partners purified", "key": {"[1]": {"molecular_target": "TgPDCD5 middle-position peptide (FITC-VLTPAAQE) (T. gondii (GT1 strain), FITC label, printed before the first residue (FITC-VLTPAAQE))"}, "[2]": {"molecular_target": "TgPDCD5 N-terminal peptide (FITC-MQPEEFA) (T. gondii (GT1 strain), FITC label, printed before the first residue (FITC-MQPEEFA))"}, "[3]": {"molecular_target": "TgPDCD5 C-terminal peptide (FITC-KNTPKVTM) (T. gondii (GT1 strain), FITC label, printed before the first residue (FITC-KNTPKVTM))"}}, "data": [{"binder": "B1", "values": [{"measurement": "Kd", "setting": "[1]", "result": 1.2, "unit": "mM"}, {"measurement": "Kd", "setting": "[2]", "result": 1.41, "unit": "mM"}, {"measurement": "Kd", "setting": "[3]", "result": 311, "unit": "µM"}]}]}
